Numbering of substitutions follows the chain as printed.
B1: TCR 16 (codon-optimized, cysteine-modified) (TCR, V domains shown)
V domain 1: KQEVTQIPAALSVPEGENLVLNCSFTDSAIYNLQWFRQDPGKGLTSLLLIQSSQREQTSGRLNASLDKSSGRSTLYIAASQPGDSATYLCAVRPANNNDMRFGAGTRLTVKP
V domain 2: DVKVTQSSRYLVKRTGEKVFLECVQDMDHENMFWYRQDPGLGLRLIYFSYDVKMKEKGDIPEGYSVSREKKERFSLILESASTNQTSMYLCASSLWGRSNQPQHFGDGTRLSILE
B2: TCR 19 (codon-optimized, cysteine-modified) (TCR, V domains shown)
V domain 1: AQKITQTQPGMFVQEKEAVTLDCTYDTSDQSYGLFWYKQPSSGEMIFLIYQGSYDEQNATEGRYSLNFQKARKSANLVISASQLGDSAMYFCAMRENTGTASKLTFGTGTRLQVTL
V domain 2: B1 V domain 2 with L95S, R98Q, N100T, Q101G, P102E, H104Y, D107P, S112T, I113V, L114T
B3: TCR 25 (codon-optimized, cysteine-modified) (TCR, V domains shown)
V domain 1: AQKITQTQPGMFVQEKEAVTLDCTYDTSDQSYGLFWYKQPSSGEMIFLIYQGSYDEQNATEGRYSLNFQKARKSANLVISASQLGDSAMYFCAMREGSLTGGGNKLTFGTGTQLKVEL
V domain 2: B1 V domain 2 with R98Q
B4: TCR 20 (codon-optimized, cysteine-modified) (TCR, V domains shown)
V domain 1: AQKVTQAQTEISVVEKEDVTLDCVYETRDTTYYLFWYKQPPSGELVFLIRRNSFDEQNEISGRYSWNFQKSTSSFNFTITASQVVDSAVYFCALWTGANNLFFGTGTRLTVIP
V domain 2: GAVVSQHPSRVICKSGTSVKIECRSLDFQATTMFWYRQFPKQSLMLMATSNEGSKATYEQGVEKDKFLINHASLTLSTLTVTSAHPEDSSFYICSASSLARRSYEQYFGPGTRLTVTE
B5: TCR 15 (codon-optimized, cysteine-modified) (TCR, V domains shown)
V domain 1: AQKITQTQPGMFVQEKEAVTLDCTYDTSDQSYGLFWYKQPSSGEMIFLIYQGSYDEQNATEGRYSLNFQKARKSANLVISASQLGDSAMYFCAMKPGGYNKLIFGAGTRLAVHP
V domain 2: DAGVIQSPRHEVTEMGQEVTLRCKPISGHNSLFWYRQTMMRGLELLIYFNNNVPIDDSGMPEDRFSAKMPNASFSTLKIQPSEPRDSAVYFCASSLVGRSRTEQYFGPGTRLTVTE
B6: TCR 26 (codon-optimized, cysteine-modified) (TCR, V domains shown)
V domain 1: B5 V domain 1 with K95R, P96D, G97A, G98R, Y99N, K101D, L102M, I103R, A111T, H113K
V domain 2: NAGVTQTPKFRVLKTGQSMTLLCAQDMNHEYMYWYRQDPGMGLRLIHYSVGEGTTAKGEVPDGYNVSRLKKQNFLLGLESAAPSQTSVYFCASSYYASGRNYEQYFGPGTRLTVTE
B7: TCR 45 (codon-optimized, cysteine-modified) (TCR, V domains shown)
V domain 1: GQQVMQIPQYQHVQEGEDFTTYCNSSTTLSNIQWYKQRPGGHPVFLIQLVKSGEVKKQKRLTFQFGEAKKNSSLHITATQTTDVGTYFCAGSSGAGSYQLTFGKGTKLSVIP
V domain 2: GAGVSQSPSNKVTEKGKDVELRCDPISGHTALYWYRQRLGQGLEFLIYFQGNSAPDKSGLPSDRFSAERTGESVSTLTIQRTQQEDSAVYLCASSLYLGTTGELFFGEGSRLTVLE
B8: TCR 41 (codon-optimized, cysteine-modified) (TCR, V domains shown)
V domain 1: RKEVEQDPGPFNVPEGATVAFNCTYSNSASQSFFWYRQDCRKEPKLLMSVYSSGNEDGRFTAQLNRASQYISLLIRDSKLSDSATYLCVVTFALTGGFKTIFGAGTRLFVKA
V domain 2: EPEVTQTPSHQVTQMGQEVILRCVPISNHLYFYWYRQILGQKVEFLVSFYNNEISEKSEIFDDQFSVERPDGSNFTLKIRSTKLEDSAMYFCASNPRDRVSYEQYFGPGTRLTVTE
B9: TCR 53 (codon-optimized, cysteine-modified) (TCR, V domains shown)
V domain 1: AQSVAQPEDQVNVAEGNPLTVKCTYSVSGNPYLFWYVQYPNRGLQFLLKYITGDNLVKGSYGFEAEFNKSQTSFHLKKPSALVSDSALYFCAVRDFGSGTYKYIFG
V domain 2: GAGVSQSPRYKVTKRGQDVALRCDPISGHVSLYWYRQALGQGPEFLTYFNYEAQQDKSGLPNDRFSAERPEGSISTLTIQRTEQRDSAMYRCASSGSGTSGYNEQFFGPGTRLTVLE
B10: TCR 55 (codon-optimized, cysteine-modified) (TCR)
TCR alpha: GEDVEQSLFLSVREGDSSVINCTYTDSSSTYLYWYKQEPGAGLQLLTYIFSNMDMKQDQRLTVLLNKKDKHLSLRIADTQTGDSAIYFCAVPSGATNKLIFGTGTLLAVQPNIQNPDPAVYQLRDSKSSDKSVCLFTDFDSQTNVSQSKDSDVYITDKCVLDMRSMDFKSNSAVAWSNKSDFACANAFNNSIIPEDTFFPSPESSCDVKLVEKSFETDTNLNFQNLSVIGFRILLLKVAGFNLLMTLRLWSS
TCR beta: EPEVTQTPSHQVTQMGQEVILRCVPISNHLYFYWYRQILGQKVEFLVSFYNNEISEKSEIFDDQFSVERPDGSNFTLKIRSTKLEDSAMYFCASTTRSSYEQYFGPGTRLTVTEDLKNVFPPEVAVFEPSEAEISHTQKATLVCLATGFYPDHVELSWWVNGKEVHSGVCTDPQPLKEQPALNDSRYCLSSRLRVSATFWQNPRNHFRCQVQFYGLSENDEWTQDRAKPVTQIVSAEAWGRADCGFTSESYQQGVLSATILYEILLGKATLYAVLVSALVLMAMVKRKDSRG
B11: TCR 31 (codon-optimized, cysteine-modified) (TCR, V domains shown)
V domain 1: DQQVKQNSPSLSVQEGRISILNCDYTNSMFDYFLWYKKYPAEGPTFLISISSIKDKNEDGRFTVFLNKSAKHLSLHIVPSQPGDSAVYFCAASERGTYKYIFGTGTRLKVLA
V domain 2: GAGVSQSPSNKVTEKGKDVELRCDPISGHTALYWYRQSLGQGLEFLIYFQGNSAPDKSGLPSDRFSAERTGGSVSTLTIQRTQQEDSAVYLCASSRFLGSTDTQYFGPGTRLTVLE
B12: TCR 50 (codon-optimized, cysteine-modified) (TCR, V domains shown)
V domain 1: GEDVEQSLFLSVREGDSSVINCTYTDSSSTYLYWYKQEPGAGLQLLTYIFSNMDMKQDQRLTVLLNKKDKHLSLRIADTQTGDSAIYFCAESPPGTYKYIFGTGTRLKVLA
V domain 2: DSGVTQTPKHLITATGQRVTLRCSPRSGDLSVYWYQQSLDQGLQFLIHYYNGEERAKGNILERFSAQQFPDLHSELNLSSLELGDSALYFCASSATRDAYGYTFGSGTRLTVVE
B13: TCR 32 (codon-optimized, cysteine-modified) (TCR, V domains shown)
V domain 1: TQLLEQSPQFLSIQEGENLTVYCNSSSVFSSLQWYRQEPGEGPVLLVTVVTGGEVKKLKRLTFQFGDARKDSSLHITAAQPGDTGLYLCAGGSNYKLTFGKGTLLTVNP
V domain 2: DSGVTQTPKHLITATGQRVTLRCSPRSGDLSVYWYQQSLDQGLQFLIQYYNGEERAKGNILERFSAQQFPDLHSELNLSSLELGDSALYFCASSVGGDHSDEQFFGPGTRLTVLE
B14: TCR 42 (codon-optimized, cysteine-modified) (TCR, V domains shown)
V domain 1: GQQVMQIPQYQHVQEGEDFTTYCNSSTTLSNIQWYKQRPGGHPVFLIQLVKSGEVKKQKRLTFQFGEAKKNSSLHITATQTTDVGTYFCAGPDNFNKFYFGSGTKLNVKP
V domain 2: EPEVTQTPSHQVTQMGQEVILRCVPISNHLYFYWYRQILGQKVEFLVSFYNNEISEKSEIFDDQFSVERPDGSNFTLKIRSTKLEDSAMYFCAKTSRSSYEQYFGPGTRLTVTE
B15: TCR 47 (codon-optimized, cysteine-modified) (TCR, V domains shown)
V domain 1: QKEVEQNSGPLSVPEGAIASLNCTYSDRGSQSFFWYRQYSGKSPELIMFIYSNGDKEDGRFTAQLNKASQYVSLLIRDSQPSDSATYLCAVNLLSGSARQLTFGSGTQLTVLP
V domain 2: B14 V domain 2 with K94M, S96G, S98T, S99T
B16: TCR 51 (codon-optimized, cysteine-modified) (TCR, V domains shown)
V domain 1: QKEVEQNSGPLSVPEGAIASLNCTYSDRGSQSFFWYRQYSGKSPELIMSIYSNGDKEDGRFTAQLNKASQYVSLLIRDSQPSDSATYLCAVNMRGGGSNYKLTFGKGTLLTVNP
V domain 2: B14 V domain 2 with K94I, T95A, S98V
B17: TCR 48 (codon-optimized, cysteine-modified) (TCR, V domains shown)
V domain 1: QKEVEQDPGPLSVPEGAIVSLNCTYSNSAFQYFMWYRQYSRKGPELLMYTYSSGNKEDGRFTAQVDKSSKYISLFIRDSQPSDSATYLCAMRIQGAQKLVFGQGTRLTINP
V domain 2: B14 V domain 2 with K94S, S96G, S98V
B18: TCR 44 (codon-optimized, cysteine-modified) (TCR, V domains shown)
V domain 1: GQNIDQPTEMTATEGAIVQINCTYQTSGFNGLFWYQQHAGEAPTFLSYNVLDGLEEKGRFSSFLSRSKGYSYLLLKELQMKDSASYLCAQYSGGYQKVTFGTGTKLQVIP
V domain 2: DSGVTQTPKHLITATGQRVTLRCSPRSGDLSVYWYQQSLDQGLQFLIQYYNGEERAKGNILERFSAQQFPDLHSELNLSSLELGDSALYFCASSGTPDTQYFGPGTRLTVLE
B19: TCR 46 (codon-optimized, cysteine-modified) (TCR, V domains shown)
V domain 1: AQSVTQLDSQVPVFEEAPVELRCNYSSSVSVYLFWYVQYPNQGLQLLLKYLSGSTLVKGINGFEAEFNKSQTSFHLRKPSVHISDTAEYFCAVSPSSGTYKYIFGTGTRLKVLA
V domain 2: GAGVSQTPSNKVTEKGKYVELRCDPISGHTALYWYRQSLGQGPEFLIYFQGTGAADDSGLPNDRFFAVRPEGSVSTLKIQRTERGDSAVYLCASSLYLGGSETQYFGPGTRLLVLE

target: T1, HLA-A2/E6(29-38) tetramer (human; HPV 16); experiment: flow cytometry, tetramer + anti-CD8; transfected mix of CD8- and CD8+ Jurkat-derived cells;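 also: CD4+ and CD4+/CD8+ cell mixtures transiently given TCR plasmids, analysed 48 h post-transfection by flow cytometry with E6(29-38)–HLA-A*02:01 tetramer plus anti-CD8 antibody co-stain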
T1 construct: also called E6(29-38) peptide-MHC tetramer; E6 tet
Procedure: (§1) For transfection, the CD4+ and CD4+/CD8+ cell mixtures were transiently transfected with TCR-encoding plasmids and 48 hours after transfection, cells were assessed by flow cytometry for (1) binding of the target peptide in the context of an MHC molecule (HLA:A02:01) by staining with an E6(29-38) peptide- or an E7(11-19) peptide-MHC tetramer reagent, and/or (2) CD8+ independent binding of the target by co-staining the tetramer-labeled cells with an anti-CD8 antibody.

Row | Binder | % cells E6 tet+/CD8+ quadrant | % cells E6 tet+/CD8- quadrant
1 | B1 | 35.6% | 28.2%
2 | B2 | 35.5% | 20.8%
3 | B3 | 34% | 14.7%
4 | B4 | 38.2% | 34.1%
5 | B5 | 21.4% | 40.2%
6 | B6 | 42.3% | 47.4%

target: T2, HLA-A2/E7(11-19) tetramer (human; HPV 16); experiment: as above;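 also: cells transiently transfected with TCR-encoding plasmids, analysed 48 h afterwards by co-staining with HLA-A*02:01 peptide tetramer and anti-CD8 antibody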
T2 construct: also called E7(11-19) peptide-MHC tetramer; E7 tet
Procedure: as §1

Row | Binder | % cells E7 tet+/CD8+ quadrant | % cells E7 tet+/CD8- quadrant
7 | B7 | 22.4% | 16.9%
8 | B8 | 6.07% | 2.41%
9 | B9 | 3.35% | 0.43%
10 | B10 | 1.45% | 0.28%
11 | B11 | 4.52% | 0.042%
12 | B12 | 3.28% | 0.25%
13 | B13 | 25.3% | 33.5%
14 | B14 | 1.21% | 1.65%
15 | B15 | 1.98% | 0.71%
16 | B16 | 5.7% | 2.06%
17 | B17 | 5.36% | 1.29%
18 | B18 | 2.96% | 1.43%
19 | B19 | 1.27% | 1.21%

— patent publication US20210284709A1 (JUNO THERAPEUTICS, published 2021)
